Test results from patent EP4019546A1 (Numab Therapeutics AG, dated 2022).

T1: human IL-31 (human, UniProt Q6EBC2 24-164)
T1 sequence (looked up): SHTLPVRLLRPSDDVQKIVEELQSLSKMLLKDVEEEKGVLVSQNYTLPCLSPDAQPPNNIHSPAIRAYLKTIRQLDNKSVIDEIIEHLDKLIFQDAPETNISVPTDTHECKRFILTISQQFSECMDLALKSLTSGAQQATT

T2: cynomolgus IL-31-His (cynomolgus monkey (Macaca fascicularis), UniProt G7PJ78 24-163)
T2 construct: extracellular domain; also called cynomolgus monkey IL-31; cyno IL-31; not shown: His tag
T2 sequence: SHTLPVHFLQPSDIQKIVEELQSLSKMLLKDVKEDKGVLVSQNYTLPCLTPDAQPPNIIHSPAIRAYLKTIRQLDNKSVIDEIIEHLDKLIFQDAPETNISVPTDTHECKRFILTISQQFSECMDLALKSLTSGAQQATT


How the values were obtained:
human IL-31 [1] = target: T1, human IL-31; assay: cell-based or functional assay
human IL-31 [2] = target: T1, human IL-31; assay: cell-based or functional assay; remark: listed apart in the source
cynomolgus IL-31-His = target: T2, cynomolgus IL-31-His; assay: SPR (Biacore T200), IL-31-His captured via anti-His antibody, scFv as analyte, 1:1 model

Row | Mean IC50, neutralization of human IL-31-induced signaling in IL-31RA/OSMR dimerization assay (human IL-31 [1]) | IC50, neutralization of hIL-31-induced signaling in IL-31RA/OSMR dimerization assay (human IL-31 [2]) | Kd (cynomolgus IL-31-His) | koff (cynomolgus IL-31-His) | kon (cynomolgus IL-31-His) | Binder
1 | 0.198 nM |  |  |  |  | PRO2198 (bispecific antibody) chain 1: DIQMTQSPSSLSARVGDRVTITCQASEDIESYLAWYQQKPGKAPKLLIYRASTLAYGVPSRFSGSGSGRDFTLTISSLQPEDFATYYCLGSSYSTGSNIFGQGTKVEIKRTVAAPSVFIFPPSDEQLKSGTASVVCLLNNFYPREAKVQWKVDNALQSGNSQESVTEQDSKDSTYSLSSTLTLSKADYEKHKVYACEVTHQGLSSPVTKSFNRGEC chain 2: not shown
2 |  | 8.21 ng/mL |  |  |  | PRO1900 (scFv) AFQLTQSPSSLSASVGDRVTITCQASQSIDSWLAWYQQKPGKPPKLLIYQASKLASGVPSRFSGSGSGTDYTLTISSLQPEDFATYYCQTYYGGGHIGWGFGTGTKVTVLGGGGGSGGGGSGGGGSGGGGSQSQLVESGGGRVQPGGSLRLSCAASGFSFSANYWICWVRQAPGKGLEWIVCIYIGSRADTYYAPWAKGRFTISKDNSKNTVYLQMNSLRAEDTATYFCARFSSGIYDLDRFFLWGQGTQVTVSS

More lines, now with the values behind:

Row | Binder | Mean IC50, neutralization of human IL-31-induced signaling in IL-31RA/OSMR dimerization assay (human IL-31 [1]) | IC50, neutralization of hIL-31-induced signaling in IL-31RA/OSMR dimerization assay (human IL-31 [2]) | Kd (cynomolgus IL-31-His) | koff (cynomolgus IL-31-His) | kon (cynomolgus IL-31-His)
3 | PRO2199 (bispecific antibody) chain 1: not shown chain 2: DIQMTQSPSSLSASVGDRVTITCQASEDIESYLAWYQQKPGKAPKLLIYRASTLAYGVPSRFSGSGSGTDFTLTISSLQPEDFATYYCLGSSYSTGSNIFGQGTKVEIKRTVAAPSVFIFPPSDEQLKSGTASVVCLLNNFYPREAKVQWKVDNALQSGNSQESVTEQDSKDSTYSLSSTLTLSKADYEKHKVYACEVTHQGLSSPVTKSFNRGEC | 0.142 nM |  |  |  | 
4 | PRO1903 (scFv) AFQLTQSPSSLSASVGDRVTITCQASQSIESWLAWYQQKPGKPPKLLIYQASKLASGVPSRFSGSGSGTDYTLTISSLQPEDFATYYCQTYYGGGHIGWGFGTGTKVTVLGGGGGSGGGGSGGGGSGGGGSQSQLVESGGGLVQPGGSLRLSCAASGFSFSANYWICWVRQAPGKGLEWIVCIYIGSRADTYYAPWAKGRFTISKDNSKNTVYLQMNSLRAEDTAVYFCARFSSGIYDLDRFFLWGQGTLVTVSS |  | 7.98 ng/mL | 1.39 nM | 0.000605 s⁻¹ | 434000 M⁻¹ s⁻¹
5 | PRO1901 (scFv) AFQLTQSPSSLSASVGDRVTITCQASQSIDSWLAWYQQKPGKPPKLLIYQASKLASGVPSRFSGSGSGTDYTLTISSLQPEDFATYYCQTYYGGGHIGWGFGTGTKVTVLGGGGGSGGGGSGGGGSGGGGSQSQLVESGGGSVQPGGSLRLSCAASGFSFSANYWICWVRQAPGKGLEWIVCIYIGSRADTYYAPWAKGRFTISKDNSKNTVYLQMNSLRAEDTATYFCARFSSGIYDLDRFFLWGQGTQVTVSS |  | 8.07 ng/mL | 1.14 nM | 0.000569 s⁻¹ | 501000 M⁻¹ s⁻¹
6 | PRO1902 (scFv) AFQLTQSPSSLSASVGDRVTITCQASQSIDSWLAWYQQKPGKPPKLLIYQASKLASGVPSRFSGSGSGTDYTLTISSLQPEDFATYYCQTYYGGGHIGWGFGTGTKVTVLGGGGGSGGGGSGGGGSGGGGSQSQLVESGGGLVQPGGSLRLSCAASGFSFSANYWICWVRQAPGKGLEWIVCISIGSRADTYYAPWAKGRFTISKDNSKNTVYLQMNSLRAEDTAVYFCARFSSGIYDLDRFFLWGQGTLVTVSS |  | 371 ng/mL | 3.38 nM | 0.00247 s⁻¹ | 731000 M⁻¹ s⁻¹
